Data taken from patent publication US20100322931A1 (AbbVie / Abbott, published 2010).

Biological target: T1, VEGF (R&D systems, Minneapolis, Minn.) (UniProt P15692-4 27-191, limits assumed)
T1 construct: Soluble analyte in the BIAcore assay; also called vascular endothelial growth factor; VEGFA
Test: SPR (BIAcore 2000/3000), antibody captured on anti-human Fc, VEGF as analyte, 1:1 Langmuir fit; variant corresponding to SEQ ID NO:82, the tightest of the variants
Experimental: RL was kept low to minimize avidity due to the dimeric nature of VEGF. No capture of the antibody was made on the reference surface to serve as a negative control. Subsequently, VEGF was injected to all flow cells at a flow rate of 50 μL/min for two minutes to monitor association followed by a 25-minute flow of HBS-P running buffer (10 mM HEPES, 150 mM sodium chloride, 0.005% P-20, pH 7.4) to monitor the dissociation phase. At each cycle, VEGF, in 6 different concentrations of VEGF ranging between 0 nM and 512 nM and at four-fold increments, was injected over the surface. […] Binding data were fit to the 1:1 Langmuir model to extract binding constants from the BIAevaluate software. Double referencing was applied in each analysis to eliminate background responses from the reference surface and buffer only control. All the binding kinetics data were analyzed at least three separate determinations.

T1 sequence (P15692 other isoform, or with tags, fused parts or gaps limits assumed): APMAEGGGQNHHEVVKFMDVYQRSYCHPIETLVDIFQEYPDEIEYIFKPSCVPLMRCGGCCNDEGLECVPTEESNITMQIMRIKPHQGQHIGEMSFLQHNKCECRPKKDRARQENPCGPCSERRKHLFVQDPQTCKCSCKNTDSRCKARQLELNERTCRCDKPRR

Kd: 0.08 nM
B1: bevacizumab variant corresponding to SEQ ID NO:82 (antibody, V domains shown)
VH: EVQLVESGGGLVQPGGSLRLSCAASGYTFTFYGMNWVRQAPGKGLEWVGWINTYTGEPTYAADFKRRFTFSLDTSKSTAYLQMNSLRAEDTAVYYCAKYPDYDGGSHWYFDVWGQGTLVTVSS
VL: DIQMTQSPSSLSASVGDRVTITCSASQDISNYLNWYQQKPGKAPKVLIYFTSSLHSGVPSRFSGSGSGTDFTLTISSLQPEDFATYYCQQYSTVPWTFGQGTKVEIKR
notes: Variant VH cloned with the unmodified VL into a human IgG1-containing plasmid and expressed in 293T/17 cells
